Laboratory results taken from patent publication US20140322204A1.

Experiments:
412-423 branched peptide = 412-423 branched peptide (UniProt P27958); assay: antibody titration on the branched peptide (FIG. 10)
[1] = biological target: H77 E1E2 mutant L413A (Hepatitis C virus genotype 1a strain H77) (UniProt P27958); assay: GNA capture EIA of E1E2 from HEK 293T cells
[2] = biological target: H77 E1E2 mutant N415A (Hepatitis C virus genotype 1a strain H77) (UniProt P27958); assay: GNA capture EIA of E1E2 from HEK 293T cells
[3] = biological target: H77 E1E2 mutant W420A (Hepatitis C virus genotype 1a strain H77) (UniProt P27958); assay: GNA capture EIA of E1E2 from HEK 293T cells
[4] = biological target: H77 E1E2 mutant Q412A (Hepatitis C virus genotype 1a strain H77) (UniProt P27958); assay: GNA capture EIA of E1E2 from HEK 293T cells
[5] = biological target: H77 E1E2 mutant G418A (Hepatitis C virus genotype 1a strain H77) (UniProt P27958); assay: GNA capture EIA of E1E2 from HEK 293T cells
[6] = biological target: E1E2 of HCV genotype 5 isolate UKN5.15.11 (Hepatitis C virus genotype 5); assay: cell-based or functional assay
[7] = biological target: E1E2 of HCV genotype 3a isolate UKN3A13.6 (Hepatitis C virus genotype 3a); assay: cell-based or functional assay

With monoclonal antibody AP33 as the substance, how does the fold lower concentration required to obtain 50% binding, against MAb 3/11 (412-423 branched peptide) read?
The fold lower concentration required to obtain 50% binding, against MAb 3/11 was > 10 fold.

And the reduction of binding compared to wild type [1]?
Its reduction of binding compared to wild type is > 75%.

What about the reduction of binding compared to wild type [2] of the same substance?
Its reduction of binding compared to wild type is > 75%.

And the reduction of binding compared to wild type [3]?
Its reduction of binding compared to wild type is > 75%.

And the enhancement of binding compared to wild type [4]?
Its enhancement of binding compared to wild type is 50%.

And the reduction of binding compared to wild type [5]?
The reduction of binding compared to wild type was > 75%.

What about the IC50 of HCVpp neutralisation (ug/ml (printed p.g/ml)) [6] of the same substance?
The IC50 of HCVpp neutralisation (ug/ml (printed p.g/ml)) was 0.6.

What about the IC50 of HCVpp neutralisation (ug/ml (printed p.g/ml)) [7] of the same substance?
The IC50 of HCVpp neutralisation (ug/ml (printed p.g/ml)) was 22.
